Assay [1] addresses rhGM-CSF expressed in NM-F9 cells cultured with 90 mM ManNAc (optimal sialylation form of rhGM-CSF) (human) (UniProt P04141). Kind of assay: cell-based or functional assay.
Assay [2] deals with Leukine (commercial rhGM-CSF of Schering AG, expressed in yeast) (human) (UniProt P04141). In words: cell-based or functional assay.

On to anti-human GM-CSF antibody BVD2-23 B6, for which the stimulation of TF-1 cell proliferation (BrdU-proliferation assay), blocking at 5 µg/ml antibody in assay [1] and in assay [2] was 60% in each case.

(Values after patent US8609370.)
